Test results taken from IntAct's records for PubMed 20129058.

B1: Replicative helicase loader DnaC (Escherichia coli (strain K12)), P0AEF0 (parent)
chain: MKNVGDLMQRLQKMMPAHIKPAFKTGEELLAWQKEQGAIRSAALERENRAMKMQRTFNRSGIRPLHQNCSFENYRVECEGQMNALSKARQYVEEFDGNIASFIFSGKPGTGKNHLAAAICNELLLRGKSVLIITVADIMSAMKDTFRNSGTSEEQLLNDLSNVDLLVIDEIGVQTESKYEKVIINQIVDRRSSSKRPTGMLTNSNMEEMTKLLGERVMDRMRLGNSLWVIFNWDSYRSRVTGKEY

Variants of: B1
Details: with dnab_ecoli dnaB

effect of a mutation on the interaction	Variant
disrupting interaction	L11Q
